According to patent US11931406:

Legend:
[1] = target: influenza HA protein (Flu A HA) (influenza A)
[2] = target: YFV X-SS-prME-XX (yellow fever virus 17D) (yellow fever virus strain 17D) (UniProt P03314)
Chain of UniProt P03314 (P03314 92-788 limits assumed): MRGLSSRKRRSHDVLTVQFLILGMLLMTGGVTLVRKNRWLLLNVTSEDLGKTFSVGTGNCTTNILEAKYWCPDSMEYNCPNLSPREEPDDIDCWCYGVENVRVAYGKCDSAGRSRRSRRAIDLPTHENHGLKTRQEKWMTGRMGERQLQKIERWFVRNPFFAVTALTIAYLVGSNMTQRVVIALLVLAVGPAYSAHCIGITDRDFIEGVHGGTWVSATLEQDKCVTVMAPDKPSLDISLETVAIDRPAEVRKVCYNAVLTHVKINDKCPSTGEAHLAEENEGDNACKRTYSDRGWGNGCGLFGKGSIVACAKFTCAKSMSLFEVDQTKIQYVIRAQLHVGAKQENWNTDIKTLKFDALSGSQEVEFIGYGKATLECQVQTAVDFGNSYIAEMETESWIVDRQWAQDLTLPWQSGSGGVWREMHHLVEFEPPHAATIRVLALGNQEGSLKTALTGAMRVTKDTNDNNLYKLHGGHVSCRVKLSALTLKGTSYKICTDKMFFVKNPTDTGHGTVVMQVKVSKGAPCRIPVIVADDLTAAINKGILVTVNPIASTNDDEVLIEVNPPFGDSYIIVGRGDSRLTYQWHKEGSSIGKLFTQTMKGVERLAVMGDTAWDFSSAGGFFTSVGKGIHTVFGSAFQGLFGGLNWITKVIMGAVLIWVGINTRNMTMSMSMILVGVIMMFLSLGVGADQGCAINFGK

Substance: anti YF virus specific antibody (sc-58083 from Santa Cruz)
- FITC positive cells [1]: 45.1%
- FITC positive cells [2]: 82%
